Laboratory results from publication PMC3472098.

Molecular target: T1, Rrp44exo- (exoribonuclease-dead) (budding yeast, UniProt Q08162 1-1001, D551N)
T1 sequence: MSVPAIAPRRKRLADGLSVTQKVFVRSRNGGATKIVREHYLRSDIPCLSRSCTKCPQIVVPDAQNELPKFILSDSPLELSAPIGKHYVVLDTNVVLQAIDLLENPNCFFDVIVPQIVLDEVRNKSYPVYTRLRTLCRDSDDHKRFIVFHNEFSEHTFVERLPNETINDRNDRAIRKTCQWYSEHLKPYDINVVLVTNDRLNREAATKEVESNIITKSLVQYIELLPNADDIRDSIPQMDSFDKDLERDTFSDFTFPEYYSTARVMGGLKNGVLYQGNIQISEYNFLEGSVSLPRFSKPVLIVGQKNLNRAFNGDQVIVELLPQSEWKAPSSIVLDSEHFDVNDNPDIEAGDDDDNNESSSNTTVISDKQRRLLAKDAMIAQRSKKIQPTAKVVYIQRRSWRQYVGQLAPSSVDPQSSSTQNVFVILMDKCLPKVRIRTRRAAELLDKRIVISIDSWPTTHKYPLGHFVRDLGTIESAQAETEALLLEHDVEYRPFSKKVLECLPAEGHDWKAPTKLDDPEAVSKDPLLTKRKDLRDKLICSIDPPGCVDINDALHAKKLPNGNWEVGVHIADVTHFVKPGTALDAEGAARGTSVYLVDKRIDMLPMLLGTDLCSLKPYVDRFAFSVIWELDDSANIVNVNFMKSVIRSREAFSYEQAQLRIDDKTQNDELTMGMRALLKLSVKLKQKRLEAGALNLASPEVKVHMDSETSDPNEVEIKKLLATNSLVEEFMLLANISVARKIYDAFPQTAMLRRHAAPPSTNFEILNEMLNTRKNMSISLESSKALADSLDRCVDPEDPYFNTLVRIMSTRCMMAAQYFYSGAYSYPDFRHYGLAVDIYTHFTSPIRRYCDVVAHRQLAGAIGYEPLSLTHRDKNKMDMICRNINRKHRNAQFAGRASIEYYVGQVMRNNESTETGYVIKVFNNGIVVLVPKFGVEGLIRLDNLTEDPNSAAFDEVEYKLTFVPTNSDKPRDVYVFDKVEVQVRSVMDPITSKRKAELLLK
Experiment: fluorescence polarization

AAAAAAAAAAAAAAAAAAAAAAAAAAAAAAAAAAAAAAAAAAAAAAAAA (ssRNA) [polyA RNA 49 nt]
binding result: binds
